Tested on: c-Src
Assay: phosphorylation enrichment, bacterial display (enrichment ratio); higher = better substrate or ligand; peptides without Tyr show the background
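Also: 11-residue human phosphosite peptides and single-mutation variants displayed on the E. coli surface, counted by deep sequencing, each peptide's frequency after selection divided by its frequency in the unselected input library; frequency after pTyr selection over input frequency; kinase dosed for 20-30% of maximal phosphorylation in three min.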

Compared with LAGRFYALRSM [CKB_Y174_K177R_YF], KMTGRYEMYAR [UPB1_Y362] is lower in phosphorylation enrichment: 0.571 for the first, 0.416 for the second.

Going from VNKIYYPDFIV [LIG3_Y768] to IKELTYQMEED [MYH7_Y1852_T1854M], the phosphorylation enrichment falls from 1.48 to 1.21.

Compared with EREYKYGAHNH [OAT_Y50_Y55H], RFMVGYEMLAQ [GALT_Y339_K334R] is higher in phosphorylation enrichment: 0.415 for the first, 0.83 for the second.

Compared with ANNEFYFQVCA, HEHVGYTTLNR [CHN1_Y148_Y143H] is higher in phosphorylation enrichment: 0.486 for the first, 0.618 for the second.

Compared with HIKHNYECLVY [XRCC5_Y416], KGSLPYSLILD [PKD1L2_Y406_N407S] is lower in phosphorylation enrichment: 1.78 for the first, 1.63 for the second.

Going from HAVFVCDICHV [TWNK_Y508_Y508C_YF] to IKGIRYLHHQG [GUCY2D_Y656_R660Q], the phosphorylation enrichment falls from 0.807 to 0.428.

Compared with YIATQYSLRPR [LBR_Y166], QQLVAYYSKHT [SRC_Y232_A237T] is lower in phosphorylation enrichment: 0.659 for the first, 0.591 for the second.

Compared with YLAAIYPTVGQ [NF1_Y2508_T2507I], FRVAGYETQGG [TIA1_Y383_YF] is lower in phosphorylation enrichment: 0.528 for the first, 0.463 for the second.

Going from DNLNNYVFQGQ [GRIN2A_Y978] to NYADPYRQLPY [CTNND2_Y503_Q507P], the phosphorylation enrichment rises from 0.598 to 0.827.

Going from KVQVSYKGDTK [HSPA1A_Y107_E110D] to HRAVEYLLTGI [RAD23A_Y197], the phosphorylation enrichment falls from 0.473 to 0.458.

Going from QPEDIYHQTWA [GBA_Y244_G241E] to LRSELYSLIAR [PHIP_Y16_F17S], the phosphorylation enrichment falls from 5.92 to 2.26.

First: EPTPGYEVGQR [TSC2_Y1788]
Second: PVGVLYKVKVF [PTS_Y128_YF]
The phosphorylation enrichment of the first is higher: 0.507 for the first, 0.388 for the second.

Compared with DRLASYQDKVR [KRT12_Y139_L140Q], HFMKLYEEKTG [PARP1_Y618] is higher in phosphorylation enrichment: 0.41 for the first, 0.425 for the second.

Going from TRSCKYLLLSM [NF1_Y491_Y489C] to EKSREYHRLFE [PIK3R1_Y463_D464H_YF], the phosphorylation enrichment rises from 0.39 to 0.442.

First: LIDGYYRLTED [JAK2_Y373_A377E]
Second: VERIGYDFIPT [CBS_Y308_G305R]
The phosphorylation enrichment of the first is higher: 0.899 for the first, 0.434 for the second.

First: SVVVPYEPPKV [TP53_Y220_E224K]
Second: QRPGPYDRPGA [HNRNPH2_Y210]
The phosphorylation enrichment of the first is higher: 0.465 for the first, 0.386 for the second.

Sequence VIKDKYPKARF [APTX_Y209_YF] has a phosphorylation enrichment of 0.408.

Tested on: Fer (mouse)
Assay: as above

Going from LAGRFYALRSM [CKB_Y174_K177R_YF] to KMTGRYEMYAR [UPB1_Y362], the phosphorylation enrichment falls from 0.843 to 0.438.

First: VNKIYYPDFIV [LIG3_Y768]
Second: IKELTYQMEED [MYH7_Y1852_T1854M]
The phosphorylation enrichment of the first is lower: 0.494 for the first, 0.495 for the second.

Compared with EREYKYGAHNH [OAT_Y50_Y55H], RFMVGYEMLAQ [GALT_Y339_K334R] is higher in phosphorylation enrichment: 0.364 for the first, 0.677 for the second.

Compared with ANNEFYFQVCA, HEHVGYTTLNR [CHN1_Y148_Y143H] is lower in phosphorylation enrichment: 0.601 for the first, 0.351 for the second.

First: HIKHNYECLVY [XRCC5_Y416]
Second: KGSLPYSLILD [PKD1L2_Y406_N407S]
The phosphorylation enrichment of the first is lower: 0.514 for the first, 1.06 for the second.

Going from HAVFVCDICHV [TWNK_Y508_Y508C_YF] to IKGIRYLHHQG [GUCY2D_Y656_R660Q], the phosphorylation enrichment falls from 0.696 to 0.417.

First: YIATQYSLRPR [LBR_Y166]
Second: QQLVAYYSKHT [SRC_Y232_A237T]
The phosphorylation enrichment of the first is higher: 0.439 for the first, 0.42 for the second.

Going from YLAAIYPTVGQ [NF1_Y2508_T2507I] to FRVAGYETQGG [TIA1_Y383_YF], the phosphorylation enrichment falls from 0.58 to 0.43.

Going from DNLNNYVFQGQ [GRIN2A_Y978] to NYADPYRQLPY [CTNND2_Y503_Q507P], the phosphorylation enrichment falls from 0.514 to 0.469.

Compared with KVQVSYKGDTK [HSPA1A_Y107_E110D], HRAVEYLLTGI [RAD23A_Y197] is higher in phosphorylation enrichment: 0.328 for the first, 0.488 for the second.

Going from QPEDIYHQTWA [GBA_Y244_G241E] to LRSELYSLIAR [PHIP_Y16_F17S], the phosphorylation enrichment rises from 3.02 to 4.78.

Going from EPTPGYEVGQR [TSC2_Y1788] to PVGVLYKVKVF [PTS_Y128_YF], the phosphorylation enrichment rises from 0.545 to 0.659.

Going from DRLASYQDKVR [KRT12_Y139_L140Q] to HFMKLYEEKTG [PARP1_Y618], the phosphorylation enrichment falls from 0.299 to 0.277.

Compared with TRSCKYLLLSM [NF1_Y491_Y489C], EKSREYHRLFE [PIK3R1_Y463_D464H_YF] is lower in phosphorylation enrichment: 0.416 for the first, 0.409 for the second.

First: LIDGYYRLTED [JAK2_Y373_A377E]
Second: VERIGYDFIPT [CBS_Y308_G305R]
The phosphorylation enrichment of the first is higher: 0.564 for the first, 0.417 for the second.

Going from SVVVPYEPPKV [TP53_Y220_E224K] to QRPGPYDRPGA [HNRNPH2_Y210], the phosphorylation enrichment falls from 0.45 to 0.281.

Work on VIKDKYPKARF [APTX_Y209_YF] yielded a phosphorylation enrichment of 0.288.

Target: Hck (UniProt P08631)
Assay: as above

Hck, sequence (P08631 whole entry, looked up): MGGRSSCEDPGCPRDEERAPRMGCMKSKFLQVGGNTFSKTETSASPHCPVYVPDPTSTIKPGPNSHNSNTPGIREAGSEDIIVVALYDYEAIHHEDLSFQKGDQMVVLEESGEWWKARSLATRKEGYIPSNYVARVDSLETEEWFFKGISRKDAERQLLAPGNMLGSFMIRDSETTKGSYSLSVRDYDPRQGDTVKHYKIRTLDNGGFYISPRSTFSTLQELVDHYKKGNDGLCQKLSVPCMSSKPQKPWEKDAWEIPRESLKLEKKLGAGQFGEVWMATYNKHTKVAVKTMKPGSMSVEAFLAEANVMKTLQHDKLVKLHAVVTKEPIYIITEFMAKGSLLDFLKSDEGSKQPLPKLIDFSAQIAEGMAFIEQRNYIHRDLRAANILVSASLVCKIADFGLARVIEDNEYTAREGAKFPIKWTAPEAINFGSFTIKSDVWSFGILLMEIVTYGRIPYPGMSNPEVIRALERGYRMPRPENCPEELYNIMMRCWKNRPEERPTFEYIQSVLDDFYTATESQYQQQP

First: LAGRFYALRSM [CKB_Y174_K177R_YF]
Second: KMTGRYEMYAR [UPB1_Y362]
The phosphorylation enrichment of the first is higher: 0.821 for the first, 0.549 for the second.

Going from VNKIYYPDFIV [LIG3_Y768] to IKELTYQMEED [MYH7_Y1852_T1854M], the phosphorylation enrichment falls from 1.25 to 0.646.

Compared with EREYKYGAHNH [OAT_Y50_Y55H], RFMVGYEMLAQ [GALT_Y339_K334R] is higher in phosphorylation enrichment: 0.44 for the first, 0.751 for the second.

Going from ANNEFYFQVCA to HEHVGYTTLNR [CHN1_Y148_Y143H], the phosphorylation enrichment rises from 0.536 to 0.57.

First: HIKHNYECLVY [XRCC5_Y416]
Second: KGSLPYSLILD [PKD1L2_Y406_N407S]
The phosphorylation enrichment of the first is lower: 0.638 for the first, 0.671 for the second.

First: HAVFVCDICHV [TWNK_Y508_Y508C_YF]
Second: IKGIRYLHHQG [GUCY2D_Y656_R660Q]
The phosphorylation enrichment of the first is higher: 0.603 for the first, 0.401 for the second.

First: YIATQYSLRPR [LBR_Y166]
Second: QQLVAYYSKHT [SRC_Y232_A237T]
The phosphorylation enrichment of the first is lower: 0.568 for the first, 0.653 for the second.

Compared with YLAAIYPTVGQ [NF1_Y2508_T2507I], FRVAGYETQGG [TIA1_Y383_YF] is lower in phosphorylation enrichment: 0.57 for the first, 0.46 for the second.

Going from DNLNNYVFQGQ [GRIN2A_Y978] to NYADPYRQLPY [CTNND2_Y503_Q507P], the phosphorylation enrichment rises from 0.392 to 0.847.

First: KVQVSYKGDTK [HSPA1A_Y107_E110D]
Second: HRAVEYLLTGI [RAD23A_Y197]
The phosphorylation enrichment of the first is lower: 0.392 for the first, 0.7 for the second.

First: QPEDIYHQTWA [GBA_Y244_G241E]
Second: LRSELYSLIAR [PHIP_Y16_F17S]
The phosphorylation enrichment of the first is lower: 4.47 for the first, 7.53 for the second.

First: EPTPGYEVGQR [TSC2_Y1788]
Second: PVGVLYKVKVF [PTS_Y128_YF]
The phosphorylation enrichment of the first is lower: 0.566 for the first, 0.619 for the second.

Going from DRLASYQDKVR [KRT12_Y139_L140Q] to HFMKLYEEKTG [PARP1_Y618], the phosphorylation enrichment rises from 0.417 to 0.519.

Going from TRSCKYLLLSM [NF1_Y491_Y489C] to EKSREYHRLFE [PIK3R1_Y463_D464H_YF], the phosphorylation enrichment falls from 0.549 to 0.429.

Compared with LIDGYYRLTED [JAK2_Y373_A377E], VERIGYDFIPT [CBS_Y308_G305R] is lower in phosphorylation enrichment: 0.778 for the first, 0.571 for the second.

Compared with SVVVPYEPPKV [TP53_Y220_E224K], QRPGPYDRPGA [HNRNPH2_Y210] is higher in phosphorylation enrichment: 0.465 for the first, 0.705 for the second.

For VIKDKYPKARF [APTX_Y209_YF], the phosphorylation enrichment was 0.332.

Tested on: AncSZ
Assay: as above

Going from LAGRFYALRSM [CKB_Y174_K177R_YF] to KMTGRYEMYAR [UPB1_Y362], the phosphorylation enrichment falls from 1.29 to 0.828.

Going from VNKIYYPDFIV [LIG3_Y768] to IKELTYQMEED [MYH7_Y1852_T1854M], the phosphorylation enrichment falls from 1.23 to 1.19.

Compared with EREYKYGAHNH [OAT_Y50_Y55H], RFMVGYEMLAQ [GALT_Y339_K334R] is higher in phosphorylation enrichment: 0.525 for the first, 1.38 for the second.

Going from ANNEFYFQVCA to HEHVGYTTLNR [CHN1_Y148_Y143H], the phosphorylation enrichment falls from 1.26 to 0.63.

Compared with HIKHNYECLVY [XRCC5_Y416], KGSLPYSLILD [PKD1L2_Y406_N407S] is higher in phosphorylation enrichment: 1.05 for the first, 1.08 for the second.

Compared with HAVFVCDICHV [TWNK_Y508_Y508C_YF], IKGIRYLHHQG [GUCY2D_Y656_R660Q] is lower in phosphorylation enrichment: 0.933 for the first, 0.684 for the second.

Going from YIATQYSLRPR [LBR_Y166] to QQLVAYYSKHT [SRC_Y232_A237T], the phosphorylation enrichment rises from 0.932 to 1.13.

First: YLAAIYPTVGQ [NF1_Y2508_T2507I]
Second: FRVAGYETQGG [TIA1_Y383_YF]
The phosphorylation enrichment of the first is higher: 0.94 for the first, 0.68 for the second.

Going from DNLNNYVFQGQ [GRIN2A_Y978] to NYADPYRQLPY [CTNND2_Y503_Q507P], the phosphorylation enrichment falls from 1.21 to 0.78.

Compared with KVQVSYKGDTK [HSPA1A_Y107_E110D], HRAVEYLLTGI [RAD23A_Y197] is higher in phosphorylation enrichment: 0.491 for the first, 0.991 for the second.

First: QPEDIYHQTWA [GBA_Y244_G241E]
Second: LRSELYSLIAR [PHIP_Y16_F17S]
The phosphorylation enrichment of the first is higher: 2 for the first, 0.919 for the second.

First: EPTPGYEVGQR [TSC2_Y1788]
Second: PVGVLYKVKVF [PTS_Y128_YF]
The phosphorylation enrichment of the first is lower: 0.863 for the first, 1.45 for the second.

Compared with DRLASYQDKVR [KRT12_Y139_L140Q], HFMKLYEEKTG [PARP1_Y618] is higher in phosphorylation enrichment: 0.532 for the first, 0.862 for the second.

Compared with TRSCKYLLLSM [NF1_Y491_Y489C], EKSREYHRLFE [PIK3R1_Y463_D464H_YF] is lower in phosphorylation enrichment: 0.823 for the first, 0.656 for the second.

First: LIDGYYRLTED [JAK2_Y373_A377E]
Second: VERIGYDFIPT [CBS_Y308_G305R]
The phosphorylation enrichment of the first is higher: 1.48 for the first, 0.759 for the second.

Going from SVVVPYEPPKV [TP53_Y220_E224K] to QRPGPYDRPGA [HNRNPH2_Y210], the phosphorylation enrichment falls from 0.827 to 0.556.

With VIKDKYPKARF [APTX_Y209_YF] the phosphorylation enrichment was 0.455.

Reference: the supplement of paper PMC10065799, “High-throughput profiling of sequence recognition by tyrosine kinases and SH2 domains using bacterial peptide display” (eLife, 2023)
